In article PMC9361823, “The α- and β-Subunit Boundary at the Stem of the Mushroom-Like α3β3-Type Oxygenase Component of Rieske Non-Heme Iron Oxygenases Is the Rieske-Type Ferredoxin-Binding Site” (Applied and Environmental Microbiology, 2022):

Biological target: the molecule itself
Assay: SEC; α (His6) and untagged β co-expressed in E. coli and co-purified by metal chelation and gel filtration (Superdex200; 20 mM Tris-HCl, 0.2 M NaCl, 10% glycerol, pH 7.4); 150- to 200-kDa complex in solution (Fig. S1; the text does not say how the size was estimated)

Protein | binding result
β-subunit of CumDO-O (CumA2) (natural protein, Pseudomonas fluorescens IP01, UniProt Q51744 1-186, looked up, CumA2, β-subunit of CumDO-O (cumene dioxygenase oxygenase component), not tagged; also called 21-kDa β-subunit) MTSADLTKPIEWPEMPVSLELQNAVEQFYYREAQLLDYQNYEAWLALLTQDIQYWMPIRTTHTSRNKAMEYVPPGGNAHFDETYESMRARIRARVSGLNWTEDPPSRSRHIVSNVIVRETESAGTLEVSSAFLCYRNRLERMTDIYVGERRDILLRVSDGLGFKIAKRTILLDQSTITANNLSQFF | binds
α-subunit of CumDO-O (CumA1) (natural protein, CumA1, α-subunit of CumDO-O (cumene dioxygenase oxygenase component); also called 51-kDa α-subunit; not shown: His6, C-terminal, kept) not shown | binds
